The record followed here is publication PMC4019695.

Assay [1] addresses Drosophila 80S ribosome (Drosophila (endogenous in fly embryos)) (UniProt P46222). Kind of assay: FRET or BRET.
For assay [2] the target is unchanged. The assay is described as follows: SEC.

In turn, “NT-dFMRP KH1 (I244N) mutant (from UniProt Q9NFU0 220-681) (domain or fragment)” gave a Kd in assay [1] of 0.13 µM. Besides, in assay [2], the fold reduction of binding against NT-dFMRP turned out to be 2 fold.

Turning to “NT-dFMRP KH2 (I307N) mutant (from UniProt Q9NFU0 220-681) (domain or fragment)”, the dissociation constant Kd in assay [1] stood at 0.061 µM.

“NT-dFMRP ΔRGG mutant, residues 220-413 (from UniProt Q9NFU0 220-413) (domain or fragment)” came in with a dissociation constant Kd in assay [1] of over 2 µM.
